“And” between values parts separate entries of the source, which are not always exact repeats. Identical values can stand only once.

Here are results for 2 molecules from doi:10.1101/2024.08.25.607996 (2024).

Assay [1] has as its target FCoV-23 S domain B (receptor-binding domain), residues 529-677, avi- and His-tagged (FCoV-23 (feline coronavirus)). The assay is described as follows: BLI.
In assay [2] the target is T1, CCoV-HuPn-2018 S domain B (receptor-binding domain), residues 523-671, avi- and His-tagged (CCoV-HuPn-2018 (canine coronavirus)).
T1 chain: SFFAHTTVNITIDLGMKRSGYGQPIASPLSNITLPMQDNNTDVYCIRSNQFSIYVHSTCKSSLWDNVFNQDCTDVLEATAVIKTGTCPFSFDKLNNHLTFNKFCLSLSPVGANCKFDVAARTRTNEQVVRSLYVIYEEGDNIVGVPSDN
The assay is described as follows: BLI. (BLI is a label-free optical method that tracks binding on a fibre tip over time.)

B1: feline APN-Fc ectodomain (dimeric) (Fc fusion)
chain: DQSKPWNVYRLPKTLIPDSYNVTLRPYLTPNNKGLYVFTGTNIVRFTCKESTNIVIIHSKRLNYTSHQGHMVALSGVGGFHPQPVIVRTELVELTEYLVVHLQEPLVAGRQYEMNSEFQGELADDLAGFYRSEYMENGVKKVLATTHMQATEARKSFPCFDEPAMKATFNITIIHPNNLVALSNMLPRGPSVPFGEDPTWKVTEFETTPIMSTYLLAYIVSEFSYVETRAPSGVLIRIWARPSAINQGHGDYALKVTGPILDFFSQHYDTPYPLNKSDQIALPDFNAGAMENWGLVTYRESALLYDRQSSSSGNQERVVTVIAHELAHQWFGNLVTLEWWNDLWLNEGFASYVEYLGADFAEPTWNLKDLMVLNDVYRVMAVDALASSHPLSTPASEINTPAQISEVFDSISYSKGASVLRMLSNFLTEDLFKMGIASYLHTYKYGNTIYLNLWEHLQQVVDKQPTIKLPDTVSAIMDRWILQMGFPVITVDTQTGTISQQHFLLDPQSVVTRPSQFNYLWIVPISSVRSGSPQAHYWLPGVEKAQNDLFKTTANDWVLLNLNVTGYYLVNYDNENWKKIQTQLQTDLSVIPVINRAQVIHDAFNLASAQKVPVTLALNNTLFLIQETEYMPWQAALSSLSYFKLMFDRSEVYGPMKRYLKKQVTPLFNHFERVTKNWTDHPQTLMDQYSEINAVSTACSYGVPECEKLAATLFAQWKKNPQNNPIHPNLRSTVYCNAIAQGGEEEWNFVWEQFLKAELVNEADKLRGALACSNQVWILNRFLSYTLDPNLIRKQDVTSTLSSISSNVVGQTLVWDFVQSNWKKLFQDYGTGSFSFSNLIQAVTRRFSTEFELQQLEQFKKNNMDTGFGSATRALEQALEKTKANLKWVKENKDVVLRWFTENS
Usually Kd stands for a measure of binding affinity in units of concentration. A low value points to higher affinity. A word on the koff: it is the first-order rate constant of dissociation. A higher koff goes with fast dissociation. Consider B1, for which, in assay [1], the equilibrium dissociation constant (Kd) was 10 nM; the off-rate (koff) was 0.0013 s⁻¹ and 0.0014 s⁻¹. For the same molecule, binding in assay [2] was characterised by a dissociation constant (Kd) of 28 nM.

B2: canine APN-Fc ectodomain (dimeric) (Fc fusion)
chain: LAQSKPWNHYRLPKTLIPSSYNVTLRPYLTPNSNGLYTFKGSSTVRFTCKESTSMIIIHSKKLNYTNIQGQRVALRGVGGSQAPAIDRTELVEVTEYLVVHLREPLQVNSQYEMDSKFEGELADDLAGFYRSEYTENGVKKVLATTQMQAADARKSFPCFDEPAMKATFNITLIHPSNLVALSNMLPRGPSVPFTEEPNWNVTEFETTPIMSTYLLAYIVSEFKNVQENTPSNVLIRIWARPSAMDQGHGNYALRVTGPILDFFSRHYDTPYPLNKSDQIALPDFNAGAMENWGLVTYRESALLYDPQSSSIGNKERVVTVIAHELAHQWFGNLVTLEWWNDLWLNEGFASYVEYLGADYAEPTWNLKDLIVLNEVYRVMAVDALASSHPLSSPASEVNTPAQISEVFDSISYSKGASVLRMLSSFLTEDLFKKGVASYLHTFAYQNTIYLDLWNHLQWALGNQTAINLPYTVNAIMDRWILQMGFPVVTVDTTTGTLSQKHFLLDPQSNVTRPSKFNYLWIIPISSVKSGTQQAHYWMPDNAKVQNDLFKTTGDEWVLLNLNVTGYYLVNYDQNNWKKIHTQLQTDLSVIPVINRAQVIHDTFDLASAQIVPVTLALNSTLFLNQETEYMPWEAALSSLSYFKLMFDRSEVYGPMKNYLRKQVTPLFNHFEKITQNWTDHPQTLTEQYNEINAVSTACTYGVPKCKDLVSTLFAEWRKNPQNNPIYPNLRSTVYCNAIAQGGEEEWNFVWEQFRNTSLVNEADKLRSALACSTQVWILNRYLSYTLNPEFIRKQDVISTLSSIASNVIGQSLAWDFIQSNWKKLFEDYGTGSFSFSNLIQAVTRRFSTEFELQQLEQFKANNMDTGFGSGTRALEQALEKTKANIKWVKENKEAVLQWFRENSQ
B2: in assay [1], the Kd is 1.2 nM; the koff was 0.00019 s⁻¹ and 0.00018 s⁻¹. This molecule registered a Kd in assay [2] of 2.6 nM.
